In patent US7267960 (Amgen, dated 2007):

Legend:
[1] = molecular target: T1, human Necl1 expressed on transduced EL4 cells (human, UniProt Q8N126 25-398); experiment: flow cytometry on transduced EL4 cells
T1 construct: whole, on cells
T1 sequence (looked up): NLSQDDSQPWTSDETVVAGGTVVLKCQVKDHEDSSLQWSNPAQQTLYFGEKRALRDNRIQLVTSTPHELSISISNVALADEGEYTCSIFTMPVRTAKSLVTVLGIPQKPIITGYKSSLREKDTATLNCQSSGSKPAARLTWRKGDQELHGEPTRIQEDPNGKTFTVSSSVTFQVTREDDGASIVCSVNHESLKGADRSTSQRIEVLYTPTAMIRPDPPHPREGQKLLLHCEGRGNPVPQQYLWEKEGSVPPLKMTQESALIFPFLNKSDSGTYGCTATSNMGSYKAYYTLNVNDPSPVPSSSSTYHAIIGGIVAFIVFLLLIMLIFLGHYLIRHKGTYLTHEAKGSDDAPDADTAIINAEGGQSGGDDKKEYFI

[2] = molecular target: T2, human LDCAM, full length membrane-bound, expressed on transfected or transduced cells (human, UniProt Q9BY67 39-442); experiment: flow cytometry on EL4 cells transduced with human LDCAM (legend of FIG. 15)
T2 construct: also called B7L-1 counter receptor; Igsf4
T2 sequence: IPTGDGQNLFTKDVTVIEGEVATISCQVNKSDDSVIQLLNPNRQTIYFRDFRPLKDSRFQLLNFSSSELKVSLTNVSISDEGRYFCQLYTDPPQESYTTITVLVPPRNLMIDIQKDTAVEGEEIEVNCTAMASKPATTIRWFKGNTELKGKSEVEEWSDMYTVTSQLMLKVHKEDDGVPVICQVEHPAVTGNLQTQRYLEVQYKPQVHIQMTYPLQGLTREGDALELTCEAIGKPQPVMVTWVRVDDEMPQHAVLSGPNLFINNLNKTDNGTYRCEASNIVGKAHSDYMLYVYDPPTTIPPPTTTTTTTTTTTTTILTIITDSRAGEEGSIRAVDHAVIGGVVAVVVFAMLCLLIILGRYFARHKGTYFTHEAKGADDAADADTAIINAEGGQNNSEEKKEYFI

B1: soluble recombinant human CRTAM-Fc (Fc fusion)
chain: SLTNHTETITVEEGQTLTLKCVTSLRKNSSLQWLTPSGFTIFLNEYPALKNSKYQLLHHSANQLSITVPNVTLQDEGVYKCLHYSDSVSTKEVKVIVLATPFKPILEASVIRKQNGEEHVVLMCSTMRSKPPPQITWLLGNSMEVSGGTLHEFETDGKKCNTTSTLIILSYGKNSTVDCIIRHRGLQGRKLVAPFRFEDLVTDEETASDALERNSLSTQDPQQPTSTVSVTEDSSTSEIDKEEKEQTTQDPDLTTEANPQYLGLARKKSG
notes: also called huCRTAM-Fc; not shown: Fc part not described
B1: no binding [1]; binds [2].
